PMC9779650 (2022)

How the values were obtained:
[1] = molecular target: T1, SARS-CoV-2 spike RBD-His (wildtype, WA1/2020) (SARS-CoV-2, UniProt P0DTC2 319-541); assay: BLI
[2] = molecular target: T1, SARS-CoV-2 spike RBD-His (wildtype, …); assay: BLI; remark: listed apart in the source

B1: P4A2 monoclonal antibody (antibody, V domains shown)
VH: QVQLQQSGAELVKPGASVKLSCKASGFTFTRYSIYWMKQRPGQGLEWIGEINPSTGDTNFNEKFKSKATLTVDKSSTTAYMQLSSLTSEDSAVYYCTRSTGYWGQGTLVTVSA
VL: DIVLTQSPASLAVSLGQRATISCRASESVEYHGTILMQWFQQKPGQPPRLLIYAASNVDSGVPARFSGSGSGTDLSLNIHPVEEDDIAMYFCQQSRKVPYTFGGGTKLEIK
For B1, which Kd [1] is on record?
Its Kd is < 1 pM.

And the koff [2]?
The koff was < 1e-07 s⁻¹.
